Results from the supplement of paper PMC10724198.
± gives the standard deviation of the averaged measurements.

System: Saccharomyces cerevisiae
Assay: protein stability index of tFT-peptide fusion (C-terminal peptide) (PSI (0-1 scale)); higher = more stable (slower turnover)
Conditions: genetic background: wild type; temperature: 30 C
Description: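 Multiplexed protein stability (MPS) profiling in S. cerevisiae. Random 12-aa peptides (tFT-X12 library) are fused to the C-terminus of a sfGFP-mCherry tandem fluorescent timer, after mCherry and a GGGS linker. Cells are FACS-sorted into 8 mCherry/sfGFP bins and deep-sequenced. The protein stability index (PSI) is the read-weighted bin average, scaled from 0 (unstable) to 1 (stable). Only peptides with >10 reads are reported; cells were grown at 30 °C in SC-His with glucose.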
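Further: PSI is a weighted mean of sequencing reads over stability bins, variants kept only with over 10 reads, mCherry proximal and sfGFP distal, peptide attached via GGGS linker.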

Sequence	protein stability index
GPSPFCTIRLKN	0.655 ± 0.018
GPSREFGSNWII	0.612 ± 0.034
GPSSVGWLFVVC	0.553 ± 0.039
GPSTVPGHGSDT	0.689 ± 0.021
GPTFPPGLPSSL	0.695 ± 0.09
GQEAGRERNNWQ	0.694 ± 0.011
GQGEPRRVWGVV	0.6746 ± 0.005
GQGGRAGRAADV	0.6532 ± 0.001
GQIKIRAFPKSR	0.662 ± 0.052
GQPYTHASSSIG	0.685 ± 0.017
GQSVRELDSIKV	0.652 ± 0.17
GQVSVGAVGSFE	0.642 ± 0.097
GRACCILWGGPE	0.694 ± 0.06
GRASGGGLGRGR	0.593 ± 0.0086
GRDSECCSGGGG	0.683 ± 0.018
GRENKWGKGRRE	0.67 ± 0.035
GRFVVHEEVWFV	0.6958 ± 0.0035
GRGACHSRGNQP	0.668 ± 0.014
GRGGARARRRVL	0.687 ± 0.071
GRGGEVALWRGV	0.6479 ± 0.0014
GRGGGGVEPCFV	0.669 ± 0.07
GRGICFGLPFLR	0.683 ± 0.039
GRGLAEGRRITR	0.638 ± 0.062
GRGLVDLLCGWV	0.683 ± 0.074
GRGRCRGGVAVE	0.751 ± 0.23

Sequence	protein stability index
GRGSAGPARVST	0.697 ± 0.024
GRGSGRCVVYWG	0.651 ± 0.069
GRGVAPQGAVDA	0.714 ± 0.027
GRKGARESSNEI	0.667 ± 0.0075
GRKNPPGTTDES	0.725 ± 0.073
GRKSSITLLHTL	0.58 ± 0.043
GRLFLHPSLLAS	0.596 ± 0.062
GRLIGICECLSV	0.622 ± 0.017
GRLIRYGSLPSP	0.729 ± 0.032
GRLLVSVFEVVH	0.614 ± 0.14
GRMGGWCVSGEV	0.658 ± 0.017
GRNIIARLNNMT	0.5748 ± 0.0047
GRNLFGLLWARP	0.721 ± 0.0094
GRRERSGKGKER	0.804 ± 0.14
GRRGWFESSIRR	0.731 ± 0.014
GRRPRRLNKDVQ	0.614 ± 0.025
GRRRARPISRGT	0.681 ± 0.047
GRRRSRGRPIDL	0.754 ± 0.03
GRRRTFGRSRGG	0.651 ± 0.029
GRRVKTVNSLGL	0.709 ± 0.061
GRRWKQHPGWVS	0.573 ± 0.051
GRSGSVGGIRGR	0.727 ± 0.04
GRSGWFGSEGVR	0.803 ± 0.12
GRSHYFLSILRI	0.5268 ± 0.0018
GRSIGVGGGGRG	0.719 ± 0.059

Sequence	protein stability index
GRSLGTPRYHPG	0.713 ± 0.016
GRSRGEGVRRNH	0.583 ± 0.042
GRSYCTLVFVWK	0.582 ± 0.011
GRTDKKKFISGL	0.608 ± 0.029
GRTENKKPSIKL	0.711 ± 0.058
GRVFDTNGIGLG	0.694 ± 0.074
GRVIVCLSWGRL	0.591 ± 0.019
GRVKEKCKRRYR	0.657 ± 0.034
GRVLSEAWSEAF	0.664 ± 0.054
GRVPSPDIGLPA	0.672 ± 0.022
GRVSFFDYSRER	0.704 ± 0.06
GRWRVEYWGFGG	0.722 ± 0.025
GRYYVPGLAALV	0.653 ± 0.0085
GSAACPVRGRFF	0.639 ± 0.095
GSCFLLSLVSFI	0.56199 ± 0.00047
GSDHIRQRNRME	0.716 ± 0.025
GSDPPAPLRHPR	0.709 ± 0.19
GSDVPCFLSLSY	0.711 ± 0.02
GSDWGYDSGLKG	0.765 ± 0.044
GSEVWGSPGFGG	0.803 ± 0.0083
GSFPNSADQTFD	0.659 ± 0.014
GSGGGVRRTIML	0.739 ± 0.022
GSGGSGLLLVEW	0.763 ± 0.02
GSGKHVGYIRVK	0.656 ± 0.0082
GSGLWAGLWRAW	0.727 ± 0.078

Sequence	protein stability index
GSGRLGGDRVVG	0.6578 ± 0.0029
GSGRSGSRFLPV	0.6606 ± 0.0057
GSGVGACRGVKV	0.685 ± 0.034
GSGYRPRVESWI	0.681 ± 0.0079
GSKLTLRLSEHF	0.686 ± 0.025
GSLGVWKGCGEG	0.652 ± 0.018
GSLHPAPDLRTR	0.709 ± 0.036
GSLLVCGMVAGM	0.5236 ± 0.0046
GSNCQVRMSIHR	0.703 ± 0.011
GSNLQWNSKREE	0.6165 ± 0.0016
GSNTTKRESQPH	0.708 ± 0.067
GSPPSSLTADSA	0.683 ± 0.017
GSPSRKGQSRTG	0.698 ± 0.012
GSRALDSPSHCS	0.74 ± 0.023
GSRARKARQPHG	0.582 ± 0.2
GSRGGPVGEAAG	0.665 ± 0.012
GSRIGTVSIRRI	0.691 ± 0.072
GSRRVSFFLRFG	0.647 ± 0.033
GSSAEGKALTES	0.668 ± 0.053
GSTGRGEGSGVT	0.664 ± 0.04
GSTLWGMAGGAR	0.6985 ± 0.0056
GSVEGVLWSGVL	0.711 ± 0.031
GSVFVFWESWRC	0.6803 ± 0.0029
